In patent publication US11856945B2, “Methods and systems for preparing and preserving a biological sample” (Washington University, priority 2017, dated 2024):

Tests used:
[1] = Preservation of NGAL in patient urine dried on paper (ELISA); type: physicochemical; conditions: three acute kidney injury patients, 1 week
Protocol: Following the successful optimization of ZIF-8 encapsulation using spiked artificial urine samples, the applicability of this technique to patient urine samples was evaluated. Three acute kidney injury patients with different urinary NGAL levels (Patient #1: 32.8 ng/ml, Patient #2: 17.4 ng/ml and Patient #3: 97.5 ng/ml, quantified by ELISA and confirmed by Western blotting, FIG. 15) were selected. […] Thus, protein biomarkers in the mixture are not subjected to extremely low or high pH (Table 2). To assess the preservation efficacy of NGAL, the urine samples with and without ZIF-8 encapsulation dried on paper substrates were stored at 25 or 40° C. for 1 week. NGAL concentration in the eluate was quantified using ELISA. […] Frozen liquid sample (−20° C.) was used as a reference. POSs represent 3 distinct Positive Control signal intensities (POS1>POS2>POS3). Results are the mean and standard deviation from two parallel dots for each biomarker. The frozen-liquid samples stored at −20° C. were employed as the reference.
Sample preparation. NGAL-spiked artificial urine (50 μg/ml of NGAL, 25 μl) or patient urine (25 μl) was first mixed with 2-methylimidazole aqueous solution (12.5 μl) and then zinc acetate dihydrate aqueous solution (12.5 μl). The final concentrations of 2-methylimidazole after mixing were 320 mM, 160 mM, 80 mM and 40 mM. […]

[2] = NGAL quantity in eluates by BCA assay; type: physicochemical; conditions: paper card stored at 40° C. for 1 week; % of spiked amount

B1: neutrophil gelatinase-associated lipocalin (protein, UniProt P80188 21-198, looked up)
Neutrophil …: QDSTSDLIPAPPLSKVPLQQNFQDNQFQGKWYVVGLAGNAILREDKDPQKMYATIYELKEDKSYNVTSVLFRKKKCDYWIRTFVPGCQPGEFTLGNIKSYPGLTSYLVRVVSTNYNQHAMVFFKKVSQNREYFKITLYGRTKELTSELKENFIRFSKSLGLPENHIVFPVPIDQCIDG
notes: urinary biomarker for acute kidney injury; human recombinant
For B1, which “NGAL preservation in patient urine” value ([1]; 25° C.) is on record?
Its value is “less than 40%”.

What about the “NGAL preservation in patient urine” value ([1]; 40° C.) of the same molecule?
The value was “less than 40%”.

And the “proteins eluted as measured by BCA assay” value [2]?
Its value is 70%.
